Assay results taken from US7385023B1, “Cancer immunotherapy and diagnosis using cytochrome P450 1B1” (Trustees of Boston University, priority 2000, dated 2008).
Peptide text beside a SMILES is read from it.

Columns and labels:
[1] = tested on: T2 cells; experiment: 51Cr release cytotoxicity assay, peptide-pulsed T2 cells; assay type: cell-based; conditions: for recognition by CYP239-specific CTL of target cells pulsed with heteroclitic peptide: CTL generated against wild type CYP239
Text: To assess cytolytic function CTL lines were used after at least four antigenic stimulations in standard ^51Cr release assays as previously described (Vonderheide et al., Immunity 10:673-679, 1999).

[2] = tested on: primary follicular lymphoma (FL) cells; experiment: 51Cr release cytotoxicity assay, primary follicular lymphoma; assay type: cell-based, human; conditions: HLA-A2+ CYP1B1+ FL, CTL from healthy donors
Procedure: CYP1B1-specific CTLs were then evaluated for cytotoxicity against primary tumor tissue.

[3] = tested on: T cells from HLA-A2+ multiple myeloma patients; conditions: n=10
[4] = tested on: T cells from HLA-A2+ healthy donors; conditions: for healthy donors with peptide-specific T cells detected / expansion: n=8, day 10
[5] = tested on: HLA-A2+ ovarian carcinoma cell line 36M
Text: To assess cytolytic function CTL lines were used after at least four antigenic stimulations in standard ^51Cr release assays as previously described (Vonderheide et al., Immunity 10:673-679, 1999). […] Monocytes as targets were isolated from PBMC by RosetteSep® (Stem Cell Technologies, Vancouver) following the manufacturer's recommendations.

[6] = tested on: HLA-A2+ primary ALL cells; experiment: 51Cr release cytotoxicity assay, primary ALL; assay type: cell-based, human
Procedure: Peptides were pulsed onto TAP-deficient T2 cells, and the maximum binding and the stability over time were assessed by flow cytometry. […] Additional experiments were carried out to characterize these peptides, in particular, CYP190.

[7] = tested on: CD8+ T cells of healthy HLA-A2+ donors; experiment: Ex vivo generation of peptide-specific CTL from healthy HLA-A2+ donors
Procedure: From a single blood draw, professional APCs, including DCs and CD40-activated B cells, are generated, and the remaining PBMCs are enriched for CD8+ T cells. T cells are primarily stimulated with peptide-pulsed DC, and repeatedly stimulated with peptide-pulsed CD40-B cells. Peptide-specificity and HLA-restriction is analyzed after a total of 2-5 stimulations, depending on the antigen under study.
CTL were generated as previously described (Vonderheide et al., Immunity 10:673-679, 1999), CD8^+ T cells (>80% CD8^+, >95% CD3^+, <2.0% CD4^+, and <5% CD56^+) were isolated from PBMC by negative selection using magnetic beads. B cells were activated via CD40, and DC were prepared from peripheral blood monocytes with IL-4 and GM-CSF (Schultze et al., J. Clin. Invest. 100:2757-2765, 1997). DC were harvested after 7 days, pulsed with peptide (40 μg/ml) and β2-microglobulin (3 μg/ml) for 2 hr at 37° C., irradiated (33 Gy), and added to autologous CD8+ T cells at a T:DC ratio of 20:1 in RPMI media supplemented with 10% human AB serum, 2 mM glutamine, 15 μg/ml gentamicin, 20 mMHEPES, and 15 ng/ml IL-7 (Endogen, Woburn, Mass.). At day 7 and weekly thereafter, T cell cultures were harvested and restimulated with irradiated (33 Gy), peptide-pulsed (10 μg/ml) autologous CD40-activated B cells. […]

[8] = tested on: CD8+ T cells of HLA-A2+ cancer patients; experiment: Ex vivo generation of peptide-specific CTL from cancer patients; assay type: cell-based, human
Text: Similar to experiments described for healthy donors, we next attempted to generate CYP1B1-specific CTL from peripheral blood of cancer patients. […] Due to lower numbers of PBMC available, CYP246-specific CTL cultures were only initiated in patients 3 and 4. […] Because autologous tumor cells were not available from these patients, we tested the same FL samples described above as primary tumor targets. CYP239-specific CTL from patient 1 lysed both HLA-A2^+ FL samples but not the HLA-A2^− (18% vs. 0% at an E:T ration of 30:1).

[9] = molecular target: HLA-A*0201 (Homo sapiens, UniProt P04439, D140Y/D185E/D98H/E176V/E277Q/G131W/G231S/I119V/I121R/I166T/I218V/L300P/L318F/N151K/N90K/P208A/P217A/Q86G/Q94H/R138H/R169H/T345S); experiment: HLA-A2/peptide complex stability on TAP-deficient T2 cells; assay type: binding
Procedure: In particular, T2 cells were incubated with peptide in serum-free medium for up to 18 hours, harvested, washed, and subsequently stained with FITC-labeled anti-HLA-A2 mAb BB7.2 (maximum peptide binding). Increase in fluorescence intensity was determined as a function of peptide binding. For analysis of complex stability, T2 cells were cultured in serum-free media for an additional 2, 4, 6, or 24 hours, and subsequently analyzed for HLA-A2 expression by flow cytometry.
The T2 assay described above was used to determine binding and dissociation rate of heteroclitic peptides engineered for optimal binding to HLA molecules.

[10] = molecular target: T1, HLA-A*0201 on the surface of TAP-deficient T2 cells (human); experiment: TAP-deficient T2 cell assay, flow cytometry
T1 construct: detected with FITC-labeled mAb BB7.2; also called HLA-A2

[11] = molecular target: T1, HLA-A*0201 on the surface of …; experiment: T2 cell assay of HLA-A*0201/peptide complex stability, flow cytometry
[12] = molecular target: T1, HLA-A*0201 on the surface of …; experiment: T2 cell HLA-A*0201 stabilisation assay, flow cytometry with FITC-BB7.2

CSCC[C@H](NC(=O)[C@@H](NC(=O)[C@H](CC(=O)O)NC(=O)[C@@H](NC(=O)[C@H](CC(C)C)NC(=O)[C@@H](N)Cc1ccc(O)cc1)C(C)C)C(C)C)C(=O)N1CCC[C@H]1C(=O)N[C@@H](Cc1c[nH]c2ccccc12)C(=O)N[C@H](C(=O)O)C(C)C [CYP239-19] (H-YLVDVMPWV-OH; N-terminus and C-terminus assumed)
recognition by CYP239-specific CTL of target cells pulsed with heteroclitic peptide [1]: equally well

CSCC[C@H](NC(=O)[C@@H](NC(=O)[C@H](CC(=O)O)NC(=O)[C@H](Cc1ccc(O)cc1)NC(=O)[C@H](CC(C)C)NC(=O)[C@@H](N)Cc1ccc(O)cc1)C(C)C)C(=O)N1CCC[C@H]1C(=O)N[C@@H](Cc1c[nH]c2ccccc12)C(=O)N[C@H](C(=O)O)C(C)C [CYP239-139] (H-YLYDVMPWV-OH; N-terminus and C-terminus assumed)
recognition by CYP239-specific CTL of target cells pulsed with heteroclitic peptide [1]: do not recognize

CSCC[C@H](NC(=O)[C@@H](NC(=O)[C@H](CC(=O)O)NC(=O)[C@@H](NC(=O)[C@H](CC(C)C)NC(=O)[C@@H](N)CO)C(C)C)C(C)C)C(=O)N1CCC[C@H]1C(=O)N[C@@H](Cc1c[nH]c2ccccc12)C(=O)N[C@@H](CC(C)C)C(=O)O [CYP239] (H-SLVDVMPWL-OH)
cytotoxicity for HLA-A2+ FL by peptide-specific CTL [2]: cytotoxic
patients with reactive T cells >0.05% on day 10 [3]: 4
healthy donors with peptide-specific T cells detected / expansion [4]: No expansion
cytotoxicity against 36M by peptide-specific CTL [5]: specific cytotoxicity

CC(C)C[C@H](NC(=O)[C@@H](N)Cc1c[nH]c2ccccc12)C(=O)N[C@@H](CCC(N)=O)C(=O)N[C@@H](Cc1ccc(O)cc1)C(=O)N[C@@H](Cc1ccccc1)C(=O)N1CCC[C@H]1C(=O)N[C@@H](CC(N)=O)C(=O)N1CCC[C@H]1C(=O)N[C@H](C(=O)O)C(C)C [CYP246] (H-WLQYFPNPV-OH; N-terminus and C-terminus assumed)
cytotoxicity for HLA-A2+ FL by peptide-specific CTL [2]: cytotoxic
patients with reactive T cells >0.05% on day 10 [3]: 5
highest level of peptide-specific T cells in one healthy donor ([4]; day 10): 0.5%
healthy donors with peptide-specific T cells detected / expansion [4]: 2
cytotoxicity against 36M by peptide-specific CTL [5]: specific cytotoxicity

FLDPRPLTV [CYP190]
lysis of HLA-A2+ primary ALL cells by peptide-specific CTL [6]: can lyse
generation of peptide-specific CTL from normal donors [7]: can be generated from normal HLA-A2^+ donors
generation of peptide-specific CTL from cancer patients [8]: can be generated from HLA-A2^+ cancer patients
lysis of peptide-pulsed T2 cells by peptide-specific CTL ([1]; CTL from healthy donors): can lyse
HLA-A2/peptide complex stability [9]: longest half-life on the cell surface
time after peptide withdrawal at which peptide/A2 complexes can be detected [9]: ≥ 24 h

FLDPRPLTV [CYP190 peptide from cytochrome P450 1B1 (FLDPRPLTV)]
binding result [10]: binds

B1: CYP239-139 heteroclitic peptide (YLYDVMPWV) (peptide)
peptide: YLYDVMPWV
notes: Designed variant of CYP239 changed at positions 1, 3 and 9
T2 assay result at 0 h post-pulsing [11]: 2
T2 assay result at 2 h post-pulsing [11]: 1.51
T2 assay result at 4 h post-pulsing [11]: 1.24
T2 assay result at 6 h post-pulsing [11]: 1.16
T2 assay result at 24 h post-pulsing [11]: 0.73

B2: CYP239-19 heteroclitic peptide (YLVDVMPWV) (peptide)
peptide: YLVDVMPWV
notes: Designed variant of CYP239 changed at positions 1 and 9
T2 assay result at 0 h post-pulsing [11]: 2.16
T2 assay result at 2 h post-pulsing [11]: 1.57
T2 assay result at 4 h post-pulsing [11]: 1.31
T2 assay result at 6 h post-pulsing [11]: 1.13
T2 assay result at 24 h post-pulsing [11]: 0.72

WLQYFPNPV [CYP246 peptide from cytochrome P450 1B1 (WLQYFPNPV)]
Binding affinity [FI] (fluorescence index) [12]: 3.4

B3: CYP239 peptide from cytochrome P450 1B1 (SLVDVMPWL) (peptide)
peptide: SLVDVMPWL
notes: Synthetic peptide bought from Sigma Genosys
T2 assay result at 0 h post-pulsing [11]: 1.91
T2 assay result at 2 h post-pulsing [11]: 1.37
T2 assay result at 4 h post-pulsing [11]: 0.78
T2 assay result at 6 h post-pulsing [11]: 0.58
T2 assay result at 24 h post-pulsing [11]: 0.12
Binding affinity [FI] (fluorescence index) [12]: 3.8
